In the supplement of paper PMC7877785:
± gives the uncertainty stated by the source.

Test: self-splicing fitness, log relative to wild type (ln ratio); higher = more splicing; Tetrahymena group I intron in knt gene, E. coli kanamycin selection, DiMSum; sequences stand for … in CUCUCU…GGAGGGAAAAGUUAUCAGGCAUGCACCUGGUAGCUAGUCUUUAAACCAAUAGAUUGCAUCGGUUUAAAAGGCAAGACCGUCAAAUUGCGGGAAAGGGGUCAACAGCCGUUCAGUACCAAGUCUCAGGGGAAACUUUGAGAUGGCCUUGCAAAGGGUAUGGUAAUAAGCUGACGGACAUGGUCCUAACCACGCAGCCAAGUCCUAAGUCAACAGAUCUUCUGUUGAUAUGGAUGCAGUUCACAGACUAAAUGUCGGUCGGGGAAGAUGUAUUCUUCUCAUAAGAUAUAGUCGGACCUCUCCUUAAUGGGAGCUAGCGGAUGAAGUGAUGCAACACUGGAGCCGCUGGGAACUAAUUUGUAUGCGAAAGUAUAUUGAUUAGUUUUGGAGUACUCGUGGUCG
How it was run: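 DiMSum derived fitness as the error-weighted combination of fold changes across replicates, kanamycin versus no kanamycin, normalised to wild type. E. coli BL21(DE3) held the library, which randomised all eight P1ex-region intron nucleotides within the knt kanamycin-resistance gene on pET-22b(+). Six replicate transformations grew overnight at 37°C or 30°C on LB agar with or without 25 μg/mL kanamycin, also containing 100 μg/mL carbenicillin, 50 μM IPTG and 0.2% rhamnose, and pooled colonies were amplicon-sequenced on an Illumina HiSeq 2500.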

Sequence	self-splicing fitness (ln) (30 °C)	self-splicing fitness (ln) (37 °C)
GGUAAGCAAUAUUACGUAUU	-2.21 ± 0.12	-1.22 ± 0.13
GGUAAGCAAUAUUACGUCGC	-1.17 ± 0.13	-0.683 ± 0.13
GGUAAGCAAUAUUACGUGAA	-1.52 ± 0.098	-1.18 ± 0.14
GGUAAGCAAUAUUACGUUCC	-2.47 ± 0.18	-2.85 ± 0.24
GGUAAGCAAUAUUACGUUUU	-2.02 ± 0.12	-0.929 ± 0.14
GGUCAGCAAUAUUACGAAAG	-1.78 ± 0.084	-1.22 ± 0.12
GGUCAGCAAUAUUACGAAGA	-1.72 ± 0.18	-0.837 ± 0.19
GGUCAGCAAUAUUACGACGA	-0.308 ± 0.072	0.501 ± 0.11
GGUCAGCAAUAUUACGAUCG	0.0558 ± 0.12	0.097 ± 0.16
GGUCAGCAAUAUUACGAUGA	-0.626 ± 0.087	0.0621 ± 0.099
GGUCAGCAAUAUUACGAUGU	-0.0366 ± 0.056	0.261 ± 0.076
GGUCAGCAAUAUUACGCAAG	-1.92 ± 0.17	-0.453 ± 0.16
GGUCAGCAAUAUUACGCACA	-0.667 ± 0.082	0.412 ± 0.12
GGUCAGCAAUAUUACGCCUA	-0.826 ± 0.12	-0.243 ± 0.14
GGUCAGCAAUAUUACGCGAG	-1.93 ± 0.13	-0.499 ± 0.13
GGUCAGCAAUAUUACGCGGA	-2.04 ± 0.47	-2.17 ± 0.41
GGUCAGCAAUAUUACGCUAC	-3.55 ± 0.28	-2.17 ± 0.16
GGUCAGCAAUAUUACGCUAU	-1.32 ± 0.092	-1.03 ± 0.096
GGUCAGCAAUAUUACGGAUG	-0.625 ± 0.095	-0.309 ± 0.097
GGUCAGCAAUAUUACGGCAG	-0.557 ± 0.081	-0.497 ± 0.11
GGUCAGCAAUAUUACGGCUA	0.0808 ± 0.098	0.494 ± 0.12
GGUCAGCAAUAUUACGGGAA	-1.5 ± 0.16	-0.702 ± 0.15
GGUCAGCAAUAUUACGGGGC	-4.04 ± 0.33	-1.11 ± 0.4
GGUCAGCAAUAUUACGUAUA	-1.7 ± 0.18	-0.369 ± 0.18
GGUCAGCAAUAUUACGUAUU	-0.159 ± 0.055	0.511 ± 0.071
GGUCAGCAAUAUUACGUCAU	-0.37 ± 0.088	0.00388 ± 0.12
GGUGAGCAAUAUUACGAACU	-2.18 ± 0.42	–

Sequence	self-splicing fitness (ln) (30 °C)	self-splicing fitness (ln) (37 °C)
GGUGAGCAAUAUUACGACCG	-0.141 ± 0.11	0.778 ± 0.19
GGUGAGCAAUAUUACGACGU	-0.578 ± 0.13	-0.013 ± 0.15
GGUGAGCAAUAUUACGAGAC	-2.82 ± 0.33	-2.01 ± 0.46
GGUGAGCAAUAUUACGAGUG	-2.19 ± 0.41	-2.55 ± 0.27
GGUGAGCAAUAUUACGCACA	-1.07 ± 0.15	-0.679 ± 0.17
GGUGAGCAAUAUUACGCCAC	-1.24 ± 0.44	–
GGUGAGCAAUAUUACGCCCU	-1.66 ± 0.41	–
GGUGAGCAAUAUUACGCUAA	-3.69 ± 0.35	-1.78 ± 0.21
GGUGAGCAAUAUUACGCUCU	-3.87 ± 0.42	-2.42 ± 0.41
GGUGAGCAAUAUUACGCUUG	-3.71 ± 0.29	-3.44 ± 0.33
GGUGAGCAAUAUUACGGUGG	-3.06 ± 0.26	-2.88 ± 0.32
GGUGAGCAAUAUUACGUUCA	–	-1.92 ± 0.47
GGUGAGCAAUAUUACGUUGG	-3.52 ± 0.32	-0.982 ± 0.36
GGUUAGCAAUAUUACGACUA	0.135 ± 0.11	0.423 ± 0.14
GGUUAGCAAUAUUACGACUG	-0.729 ± 0.1	-0.796 ± 0.12
GGUUAGCAAUAUUACGAGUU	-1.87 ± 0.15	-0.221 ± 0.12
GGUUAGCAAUAUUACGAUCG	-0.314 ± 0.14	-0.207 ± 0.27
GGUUAGCAAUAUUACGAUGU	-0.65 ± 0.14	-0.087 ± 0.15
GGUUAGCAAUAUUACGCACA	-0.431 ± 0.1	-0.339 ± 0.14
GGUUAGCAAUAUUACGCAGA	-1.17 ± 0.24	-2.02 ± 0.26
GGUUAGCAAUAUUACGCGAC	-2.02 ± 0.34	-1.33 ± 0.27
GGUUAGCAAUAUUACGCUCA	-1.34 ± 0.2	-0.632 ± 0.19
GGUUAGCAAUAUUACGCUUU	-2.01 ± 0.13	0.0831 ± 0.14
GGUUAGCAAUAUUACGGCCC	-1.23 ± 0.43	–
GGUUAGCAAUAUUACGGGUA	-1.11 ± 0.22	-1.39 ± 0.19
GGUUAGCAAUAUUACGGGUC	-2.03 ± 0.24	-0.805 ± 0.18
GGUUAGCAAUAUUACGUAGC	-2.18 ± 0.16	-1.97 ± 0.17

Sequence	self-splicing fitness (ln) (30 °C)	self-splicing fitness (ln) (37 °C)
GGUUAGCAAUAUUACGUAUU	-1.14 ± 0.11	-0.191 ± 0.1
GGUUAGCAAUAUUACGUCAC	–	-1.82 ± 0.23
GGUUAGCAAUAUUACGUCCC	–	-2.36 ± 0.34
GGUUAGCAAUAUUACGUGCC	-2 ± 0.46	–
GGUUAGCAAUAUUACGUGGU	-2.69 ± 0.18	-0.78 ± 0.17
GGUUAGCAAUAUUACGUUAA	-2.32 ± 0.19	-0.699 ± 0.16
GGUUAGCAAUAUUACGUUAU	-1.61 ± 0.1	-0.954 ± 0.1
GGUUAGCAAUAUUACGUUCG	-0.206 ± 0.089	0.151 ± 0.11
GGUUAGCAAUAUUACGUUCU	-0.833 ± 0.042	-0.236 ± 0.052
GUAAAGCAAUAUUACGAAAU	-0.837 ± 0.078	-0.128 ± 0.1
GUAAAGCAAUAUUACGAACC	-2.39 ± 0.29	-2.8 ± 0.36
GUAAAGCAAUAUUACGAAUG	-2.8 ± 0.14	-1.23 ± 0.2
GUAAAGCAAUAUUACGACAG	-2.12 ± 0.17	-2.22 ± 0.25
GUAAAGCAAUAUUACGACGC	0.577 ± 0.16	0.0941 ± 0.19
GUAAAGCAAUAUUACGAGGG	-3.57 ± 0.24	–
GUAAAGCAAUAUUACGAUAU	-0.349 ± 0.087	-0.0732 ± 0.11
GUAAAGCAAUAUUACGAUCA	-0.396 ± 0.11	-0.197 ± 0.11
GUAAAGCAAUAUUACGCCAG	-1.89 ± 0.083	-1.21 ± 0.14
GUAAAGCAAUAUUACGCCGA	-0.859 ± 0.11	-0.839 ± 0.14
GUAAAGCAAUAUUACGCCUG	-0.223 ± 0.15	0.555 ± 0.17
GUAAAGCAAUAUUACGCGAC	-0.509 ± 0.26	1.71 ± 0.45
GUAAAGCAAUAUUACGCUGG	-0.164 ± 0.086	-0.981 ± 0.14
GUAAAGCAAUAUUACGGAUG	-2.97 ± 0.24	-0.613 ± 0.19
GUAAAGCAAUAUUACGGCGU	-0.369 ± 0.069	0.409 ± 0.11
GUAAAGCAAUAUUACGGGAG	-3.68 ± 0.25	-1.67 ± 0.14
